Data from PMC4253670 (Biochemical and biophysical research communications, 2014).
“Also recorded” adds a separate entry of the source. Where no end group is shown, it is not given here.

B1: Cp: Purified human Cp (Vital Products), copper-containing ferroxidase (protein)
chain: KEKHYYIGIIETTWDYASDHGEKKLISVDTEHSNIYLQNGPDRIGRLYKKALYLQYTDETFRTTIEKPVWLGFLGPIIKAETGDKVYVHLKNLASRPYTFHSHGITYYKEHEGAIYPDNTTDFQRADDKVYPGEQYTYMLLATEEQSPGEGDGNCVTRIYHSHIDAPKDIASGLIGPLIICKKDSLDKEKEKHIDREFVVMFSVVDENFSWYLEDNIKTYCSEPEKVDKDNEDFQESNRMYSVNGYTFGSLPGLSMCAEDRVKWYLFGMGNEVDVHAAFFHGQALTNKNYRIDTINLFPATLFDAYMVAQNPGEWMLSCQNLNHLKAGLQAFFQVQECNKSSSKDNIRGKHVRHYYIAAEEIIWNYAPSGIDIFTKENLTAPGSDSAVFFEQGTTRIGGSYKKLVYREYTDASFTNRKERGPEEEHLGILGPVIWAEVGDTIRVTFHNKGAYPLSIEPIGVRFNKNNEGTYYSPNYNPQSRSVPPSASHVAPTETFTYEWTVPKEVGPTNADPVCLAKMYYSAVEPTKDIFTGLIGPMKICKKGSLHANGRQKDVDKEFYLFPTVFDENESLLLEDNIRMFTTAPDQVDKEDEDFQESNKMHSMNGFMYGNQPGLTMCKGDSVVWYLFSAGNEADVHGIYFSGNTYLWRGERRDTANLFPQTSLTLHMWPDTEGTFNVECLTTDHYTGGMKQKYTVNQCRRQSEDSTFYLGERTYYIAAVEVEWDYSPQREWEKELHHLQEQNVSNAFLDKGEFYIGSKYKKVVYRQYTDSTFRVPVERKAEEEHLGILGPQLHADVGDKVKIIFKNMATRPYSIHAHGVQTESSTVTPTLPGETLTYVWKIPERSGAGTEDSACIPWAYYSTVDQVKDLYSGLIGPLIVCRRPYLKVFNPRRKLEFALLFLVFDENESWYLDDNIKTYSDHPEKVNKDDEEFIESNKMHAINGRMFGNLQGLTMHVGDEVNWYLMGMGNEIDLHTVHFHGHSFQYKHRGVYSSDVFDIFPGTYQTLEMFPRTPGIWLLHCHVTDHIHAGMETTYTVLQNEDTKSG

How the values were obtained:
MPO [1] = biological target: T1, MPO (Homo sapiens, UniProt P05164); assay: Peptide screening, direct binding ELISA of 87 overlapping Cp peptides; conditions: combined data of 87 ELISA plates; 24-mers not HPLC-purified; figure 2A
MPO [2] = biological target: T1, MPO; assay: Direct binding ELISA of HPLC-purified peptides; conditions: 24-mer P18, 21-mers of P18, P48, P76, negative controls P28 and P61, mean ± SEM, n = 4 wells, p<0.05, figure 3B
Cp = conditions: oxidation of ferrous ions and removal of peroxides; ref [14]; cited from earlier work
MPO [3] = biological target: T1, MPO; assay: Surface plasmon resonance, immobilized MPO; conditions: read-out: binding affinity (Kd); MPO immobilized on CM5 chip via -NH2; Cp 1 to 200 nM; Biacore3000, 30 μl/min; Biaevaluation software
MPO [4] = conditions: ref [14]; cited from earlier work

T1 sequence (P05164 279-745 limits assumed): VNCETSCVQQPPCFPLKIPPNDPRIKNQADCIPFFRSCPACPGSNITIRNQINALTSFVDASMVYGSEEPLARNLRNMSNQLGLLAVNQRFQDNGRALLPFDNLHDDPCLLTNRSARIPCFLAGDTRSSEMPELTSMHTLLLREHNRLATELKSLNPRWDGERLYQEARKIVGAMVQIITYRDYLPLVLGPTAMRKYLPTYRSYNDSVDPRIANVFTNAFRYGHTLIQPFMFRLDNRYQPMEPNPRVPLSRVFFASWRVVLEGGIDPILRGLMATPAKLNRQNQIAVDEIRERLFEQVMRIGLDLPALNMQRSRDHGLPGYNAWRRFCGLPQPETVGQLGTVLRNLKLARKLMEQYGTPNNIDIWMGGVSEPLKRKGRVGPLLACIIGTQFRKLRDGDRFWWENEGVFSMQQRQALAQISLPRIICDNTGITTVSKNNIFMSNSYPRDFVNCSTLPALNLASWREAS
T1 sequence (P05164 165-273 limits assumed): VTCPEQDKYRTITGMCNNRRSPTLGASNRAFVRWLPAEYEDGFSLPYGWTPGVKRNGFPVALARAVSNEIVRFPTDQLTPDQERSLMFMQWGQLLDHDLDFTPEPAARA

Row | Molecule | peptide-MPO to Cp-MPO absorbance ratio (MPO [1]) | binding of MPO to HPLC-purified surface-adsorbed peptide (MPO [2]) | effect of MPO binding on antioxidant activities of Cp (Cp) | Kd (MPO [3]) [nM] | binding to and inhibition of myeloperoxidase (MPO [4])
1 | VVDENFSWYLEDNIKTYCSEPEKV [P18] | two major peaks | bound more MPO than its shorter, 21-mer version; also recorded: bound more MPO than P76 |  |  | 
2 | B1 |  |  | does not inhibit important antioxidant activities of Cp | 30 | bind and inhibit myeloperoxidase (MPO)
